Measured values published in the nanobody polyreactivity screen of Harvey et al. (2022).

Assay: yeast display, Sf9 membrane polyspecificity reagent, FACS + sequencing; frameworks hold sequencing errors
Procedure, shortened: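 Galactose-induced (36–48 hours) yeast carrying a synthetic nanobody display library were exposed to 10% biotinylated, detergent-solubilized Sf9 membrane reagent at 4 °C for 1 hour. FACS followed streptavidin microbead enrichment, using low and high (top ~1%) gates for expression (anti-HA) and reagent binding (streptavidin). Colony PCR, MiSeq 2 × 250 sequencing and CDR-length filtering followed. Labels for polyreactivity reflect the gate of origin.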

Sequence	polyreactivity (PSR sort gate)
QVQLVESGGGLVQAGGSLRLSCAASGSTFEYYAMGWYRQAPGKERELVAAISSGPSTTYADSVKGRFTISRDNAKNTVYLQMNSLKPEDTAVYYCAARTYPSYYVTFEYWGQGTQVTVSS	low polyreactivity
QVQLVESGGGLVQAGGSLRLSCAASGSIFDVYTMGWDREAPGKERELVAAINTGGGSTYYADSVKGRFTISRDNAKNTVYLQMNSLKPEDTAVYYCAASVYHYGPLYYWGQGTQVTVSS	low polyreactivity
QVQLVESGGGLVQAGGSLRLSCAASGRTFHRYAMGWYRQAPGKERELVAAINWRGGSTYYADSVKGRFTISRDNAKNTVYLQMNILKPEDTEVYYCAAKTTTPYRYIYYYWGQGTQVTVSS	high polyreactivity
QDQLVESVGGLVQAGCSLRLSSAASVSIFVIYAMGWYRQAPGNERELVAAISWNGGSTFYADSVKGRITISRDNAKNTVYLQMNSQKPEDTAVYYCNTVASYYRWKSYYYWGQGTQVTVSS	high polyreactivity
QVQLVESGGGLVQAGGSLRLSCAASGSIYYNAMGWYRQAPGKERELVAAISTSGGTTYYADSVKGRFTISRDNAKNTVYLQMNSLKPEDTAVYYCNALSVPDYDYWGQGTQVTVSS	high polyreactivity
QVQLVESGGGLVQAGGSLRLSCAASGFTFTPYAMGLYSQAPGKERELVAAITWRGGTYYADSVKGRFTISRDNAKKSVYLQMNSLKPEDTAVYYCAARVWRLYPSTYDYWGQGTQVTVSS	high polyreactivity
QVQLVESGGGLVQAGGSLRLSCAASGSIFFANAMGWYRPAPGKERELVATITSGGSTTYADSLKGRFTISRDNAKNTVYLQMNSLKPEDTAVYYCNADYDYGWVFYSNYDYWGQGTQVTVSS	low polyreactivity
QVHLVESGGGLVQAGGSLRLSCAASGSIFGYNTMGWYRQAPGKERELVAAISYSSGSTHYADSVKGRFTISRVNAKNTVYLQMNSLKPEDTAVYYSTSVRRWSFGYWGQGTQVTVSS	low polyreactivity
QVQLVASGGGLVQSGGSLRLSCAASGLTFEQYAMGWYRQAPGKERELVAAISRRGTSTYYADSVKARFTISRDYAKNYVYLQMNSRKPEDTAVYYCNAGWWYLGSPFDRDYWGQGTLVTVSS	high polyreactivity
QVQLVESGGGLVQAGGSLRLSCAASGSTFQRYAMGWYRQAPGKERELVASISTSGGSTYYAHSVKGRFTISRDNAKNTVYLQMNSLKPEDTAVYYCAAQGWSRQVREGWIKRDYWGQGTQVTVSS	high polyreactivity
QDQLVESGGGLVQAGGSLRLSCAASGSIFLKYVMGVYRPEPGKERELVASISSGGGTYYADSVKGRFTISRDNAKNTVYLQMNILKPEDTAVYYCARRPYRGSYAFDYWGQGTQVTVSS	low polyreactivity
QVQLVESGGGLVQAGGSLRLSCAASGSTFPWNAMGWYRQAPGKERELVAAISSGGSTNYADSVKGRFTISRDNAKNTVYLQMNSLKPEDTAVYYCNAYYWSDSRGKYDYWGQGTQVTVSS	low polyreactivity
QVQLVESGGGLVQAGGSLRLSCAASGRIYDGYAMGWYRQAPGKERELVATISSGGSTYYADSVKGRFTISRDNAKNNVYLQMNSLKPEDTAVYYCAADSWVQFDYWGQGTQVTVSS	low polyreactivity
QVQLVESGGGLVQAGGSLRLSCAASGSIFDDYAMGWYRQAPGKERELVAAISSSGTSTYYADSVKGRFTISRDNAKNTVYLQMNSLKPEDTAVYYCAKYAGVYEYDYWGQGTQVTVSS	low polyreactivity
QVQLVESGGGLVQAGGSLRLSCAASGRTFEANAMGWYRQAPGKERELVASISRSGGNTYYADSVKGRFTISRDNAKNTGYLQMNSLKPEDTAVYYCAARFRVGQRRFNYWGQGTQVTVSS	high polyreactivity
QVQLQESGGGLVQVGGSLRLSCAASGTIFIYGFLGWNRQAPGKERELVASINLGGITNYADSVKGRFTISRDNAKNTVYLQMISLKPEDTAVYYCAAYVVTGQNYGYWGQGTQVTVSC	low polyreactivity

Sequence	polyreactivity (PSR sort gate)
QVQLVESGGGLVQAGGSLRLSCAASGITFVRYAMGWYRQATGKERELVAGISRGGSTNYADSVKGRFTISRDNAKNTVYLQMNSLKPEDTAVYYCNRVFTWRYGYRYEYWGQGTQVTVSS	high polyreactivity
QVQLVESGRGLVQAGGSLRLSCHASGFTFSPYTMGWSRQAPGKERELVATIRYDCTSTYYADSVKGRFTISRDNAKNTVYLQMNSLKPEDTAVYYCAADIWRVYSTFYYWGQGTEVTVSS	low polyreactivity
QVQLVESGGGLVKAGGSLRLSCAASGSIFRYYAMGWYRQAPGKERELVASITNGGSTNYADSVKGRFTISRDNAKNTVYLQMNSLKPEDTAVYYCAARYLYYTPPPRRYYYWAQGTQVTVSS	high polyreactivity
QVQLVESGGRLVQAGGSLRLSCAASGSIFRSNAMGWYRQAPGKERELVATISSSTGSTYYADSVKGRFTISRDNAKNTVYLQMNSLKPEDTAVYNCAAVQPVKSSSGYHFWYYWGQGTQVTVSS	high polyreactivity
QVQLVESGGGLVQAGGSLRLSCAGSGSIFYQYAMGWYRQAPGKERELVAAISDSGGSTHYADSVKGRFTISRDNAKNTVYLQMNSLKPEDTAVYYCPANLYYQYGGDYWGQGSQVTVSS	low polyreactivity
QVQLVESVGGLVQAGGSLRLSCADSGSIFAANAIGWFRQAPGKERELVAAISRSGNTYYADSVKGRFTISRDNAKNTVYLQMNSLKPEDTAVYYCAARRYAYGRTYGYWGQGTQVTVSS	high polyreactivity
QVQLVESGGGLVQAGGSLRLSCAASGSISSQYGMGWYRQAPGKERELVATIRDGGRTNYADSVKGRFTISRDNAKNTVYLQMNCLKPEDTAVYYCAALYWYYYTWPLYDYWGQGSQVTVSS	low polyreactivity
QVQLVESGGCLDQAGGSLRLSCAASGFTFYNYAMGWYRQEPGKETQLVAAITRNGGRTYYADSVKWRFTISRDNAKYTVYLQMNSLKPEDTAFYYCASKKYKTVRYDYWGQGTQGTVSS	high polyreactivity
QFQLVESGGGLVQAGGSLRLSCAASGFTFPRYAMGWYRQAPGKERELVAAITSGDRTYYADSVKGRFTISRDNAKNTVYLQMNSLKPEDTAVYYCAKSSPRKSSQKHSFYEYNYWGQGTQVSVSS	high polyreactivity
QVQLVESGGGLVQAGGSLRLSCAASGSTFCINAMGWYRQAPGKERDLVAAISSRGGSTYYADSVKGRFTISRDNAKNTVYLQMNSLKPEDTAVYYCAAEFAVSFYWSWLGQDYNYWGQGTQVTVSS	high polyreactivity
QVQLVESGGGLVQAGGSLRLSCAASGFTFDSYAMGWYRQAPGNDRELVAAISYRGGSTYYADSVKGRFSISRDNAKNTVYLQMNSLKPEDTAVFYCAARSPSAAYGSYGVYSWGQGTQVTVSS	high polyreactivity
QVQLVESGGGLVQAGGSLRLSCAASGLTFGNYAMGWDRQAPGKERELVAAISWGGGITYYADSVKGRFTISRDIAKNTVYLQMNSLKPEDTAVYYCAADVYFNSTPDYLYDYWGQGTQVTVSS	low polyreactivity
QVPLVESGGGLVQSGGSLRLSCAASGSTCSRNAMGWYREAPGKERELVAAINDSGGSTYYADSVKGRFTISRDMAKNTVYLQMNSLKPEDTAVYYCNAVSPYYWDFRYDYWGQGTQVTVSS	high polyreactivity
QVQLVESGGGLDQAGGSLRLSCAASGITFVRYAMGWYRQAPGKERELVAAISWSGGSTYYADSVKGRFTISRDNEKNTVYLQMNSLKPEDTAVYYCAAQHDVRYDYWGQGTQVTVSS	low polyreactivity
QVQLVESGGGLVQAGGSLRLSCAASGRTFPVYAMGWYRQAPGKERELVAAITRSDDSTYYADSVKGRFTISRDNAKNTVYLQMNSLKPEDTAVYYCARRSRESYEYDYWGQGTQVTVSS	low polyreactivity
QVQLVESGGGLVQAGGSLRLSCAASGSTFRWYAMGWYRQAPGKERELVAAITAGGRTYYADSVKGRFTISRDNAKNTVYLQMTSLKPEDTAVYYCNALGKPTWYATTYDYWGQGTQVTVSS	high polyreactivity
